Assay results reported in IntAct's records for PubMed 27150043.

Molecular target: ab1ip_mouse Apbb1ip (UniProt Q8R5A3)
UniProt Q8R5A3, sequence (Q8R5A3 whole entry): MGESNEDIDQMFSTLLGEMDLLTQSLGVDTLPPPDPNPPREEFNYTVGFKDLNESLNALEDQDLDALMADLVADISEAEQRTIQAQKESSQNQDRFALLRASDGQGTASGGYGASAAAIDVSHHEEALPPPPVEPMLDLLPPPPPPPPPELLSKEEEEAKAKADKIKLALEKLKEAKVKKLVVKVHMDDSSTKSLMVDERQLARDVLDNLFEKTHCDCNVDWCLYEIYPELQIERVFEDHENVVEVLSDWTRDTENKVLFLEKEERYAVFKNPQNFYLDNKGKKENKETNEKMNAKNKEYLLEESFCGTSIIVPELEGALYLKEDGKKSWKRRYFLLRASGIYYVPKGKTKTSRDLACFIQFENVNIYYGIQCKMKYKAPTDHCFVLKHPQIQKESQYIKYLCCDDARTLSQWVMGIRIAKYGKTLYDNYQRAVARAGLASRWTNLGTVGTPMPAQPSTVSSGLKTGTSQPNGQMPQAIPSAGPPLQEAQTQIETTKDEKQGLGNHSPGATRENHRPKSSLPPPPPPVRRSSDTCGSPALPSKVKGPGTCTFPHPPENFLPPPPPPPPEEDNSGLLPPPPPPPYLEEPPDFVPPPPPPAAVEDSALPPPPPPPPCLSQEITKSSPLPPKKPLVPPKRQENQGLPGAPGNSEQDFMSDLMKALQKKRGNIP

Row | Substance | effect of a mutation on the interaction
1 | Talin-1 (Mus musculus), P26039 E1794Y;E1797Y | decreasing interaction strength
2 | Talin-1 (Mus musculus), P26039 E1794Y;E1797Y;Q1801Y | decreasing interaction strength
